Results reported in article PMC6876245.
Like-named read-outs stand apart in the source and are kept apart here.

T1: POT1-N (human, UniProt Q9NUX5 1-340)
T1 sequence: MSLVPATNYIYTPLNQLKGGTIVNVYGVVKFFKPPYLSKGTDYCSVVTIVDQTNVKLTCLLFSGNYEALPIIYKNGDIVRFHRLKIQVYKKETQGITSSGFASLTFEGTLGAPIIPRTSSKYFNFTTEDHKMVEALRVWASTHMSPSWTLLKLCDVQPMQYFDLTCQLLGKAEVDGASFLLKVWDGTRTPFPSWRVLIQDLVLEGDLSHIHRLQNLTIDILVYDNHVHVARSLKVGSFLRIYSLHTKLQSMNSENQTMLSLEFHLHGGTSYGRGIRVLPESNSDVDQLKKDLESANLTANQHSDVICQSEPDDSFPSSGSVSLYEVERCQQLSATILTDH

B1: hT72 (ssDNA)
DNA: GGTTAGGGTTAGGGTTAGGGTTAGGGTTAGGGTTAGGGTTAGGGTTAGGGTTAGGGTTAGGGTTAGGGTTAG

Key:
POT1 H266L;TPP1 [1] = molecular target: T2, POT1 H266L;TPP1 (human;human, UniProt Q9NUX5;Q96AP0 1-634;3-248, H266L|); experiment: EMSA
Target sequence in this assay (Q9NUX5 whole entry H266L, chain 1 of 2): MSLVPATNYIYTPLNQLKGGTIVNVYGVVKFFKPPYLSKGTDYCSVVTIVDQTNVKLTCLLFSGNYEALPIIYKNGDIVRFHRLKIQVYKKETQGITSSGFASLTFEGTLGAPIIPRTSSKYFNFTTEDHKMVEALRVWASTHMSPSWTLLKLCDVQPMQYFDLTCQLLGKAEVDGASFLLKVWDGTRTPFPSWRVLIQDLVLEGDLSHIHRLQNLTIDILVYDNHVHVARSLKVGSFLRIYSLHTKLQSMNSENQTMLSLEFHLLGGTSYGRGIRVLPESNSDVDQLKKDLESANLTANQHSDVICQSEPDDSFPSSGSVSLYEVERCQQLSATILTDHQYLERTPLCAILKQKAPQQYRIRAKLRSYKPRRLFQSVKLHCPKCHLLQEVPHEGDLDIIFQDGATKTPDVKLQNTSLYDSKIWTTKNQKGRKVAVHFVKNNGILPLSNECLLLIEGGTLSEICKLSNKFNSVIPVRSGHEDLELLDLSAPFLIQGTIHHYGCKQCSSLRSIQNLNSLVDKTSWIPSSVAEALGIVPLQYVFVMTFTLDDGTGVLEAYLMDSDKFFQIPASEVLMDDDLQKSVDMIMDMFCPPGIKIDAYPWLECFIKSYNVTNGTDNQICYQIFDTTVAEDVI
Target sequence in this assay (Q96AP0 3-248, chain 2 of 2): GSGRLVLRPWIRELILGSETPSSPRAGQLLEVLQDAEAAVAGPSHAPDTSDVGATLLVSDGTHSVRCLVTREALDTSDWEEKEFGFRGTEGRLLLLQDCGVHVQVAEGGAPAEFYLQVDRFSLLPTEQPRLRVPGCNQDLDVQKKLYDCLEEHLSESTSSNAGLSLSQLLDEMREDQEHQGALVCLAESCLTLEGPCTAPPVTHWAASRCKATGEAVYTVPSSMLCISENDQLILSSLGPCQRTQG

POT1;TPP1 [2] = molecular target: T3, POT1;TPP1 (human;human, UniProt Q9NUX5;Q96AP0 1-634;3-248, |); experiment: EMSA
POT1 Y36N;TPP1 [3] = molecular target: T4, POT1 Y36N;TPP1 (human;human, UniProt Q9NUX5;Q96AP0 1-634;3-248, Y36N|); experiment: EMSA
Target sequence in this assay (Q9NUX5 whole entry Y36N, chain 1 of 2): as the sequence (Q9NUX5 whole entry H266L, chain 1 of 2) above, with Y36N, L266H counted along it
Target sequence in this assay (Q96AP0 3-248, chain 2 of 2): as the sequence (Q96AP0 3-248, chain 2 of 2) above

POT1-N [4] = molecular target: T1, POT1-N; experiment: hydroxyl radical footprinting MS
POT1 H266L;TPP1 [5] = molecular target: T2, POT1 H266L;TPP1; experiment: stopped-flow CD
Target sequence in this assay (Q96AP0 3-248, stated change not applied, one chain of several): as the sequence (Q96AP0 3-248, chain 2 of 2) above

POT1;TPP1 [6] = molecular target: T3, POT1;TPP1; experiment: EMSA; remark: listed apart in the source
POT1 Y36N;TPP1 [7] = molecular target: T4, POT1 Y36N;TPP1; experiment: EMSA; remark: listed apart in the source
Target sequence in this assay (Q96AP0 3-248, stated change not applied, one chain of several): as the sequence (Q96AP0 3-248, chain 2 of 2) above

POT1-N [8] = molecular target: T1, POT1-N; experiment: hydroxyl radical footprinting MS; remark: listed apart in the source

T3 sequence (Q96AP0 3-248, one chain of several): as the sequence (Q96AP0 3-248, chain 2 of 2) above

Binder	Kd (POT1 H266L;TPP1 [1]) [nM]	Kd (POT1;TPP1 [2]) [nM]	Kd (POT1 Y36N;TPP1 [3]) [nM]	binding result (POT1-N [4])	binding result (POT1 H266L;TPP1 [5])	apparent K (half saturation) (POT1;TPP1 [6]) [nM]	apparent K (half saturation) (POT1 Y36N;TPP1 [7]) [nM]	binding result (POT1-N [8])
GGTTAGGGTTAG (ssDNA) [hT12]	29.1 ± 9.3	1 ± 0.5	2.2 ± 1.1	binds				
B1					binds	6.9 ± 0.6	4.5 ± 0.4	binds
